Measurements taken from PMC3969221 (2014).

Molecular target: Cry1AbMod protoxin (Bacillus thuringiensis, UniProt P0A370 1-1155)
Assay: ELISA

B1: Manduca sexta cadherin protein fragment (CR7–CR12) (domain or fragment)
chain: MIDFLTGQISVNTSGAIDADTPPRFHLYYTVVASDRCSTEDPADCPPDPTYWETEGNITIHITDTNNKVPQAETTKFDTVVYIYENATHLDEVVTLIASDLDRDEIYHTVSYVINYAVNPRLMNFFSVNRETGLVYVDYETQGSGEVLDRDGDEPTHRIFFNLIDNFMGEGEGNRNQNDTEVLVILLDVNDNAPELPPPSELSWTISENLKQGVRLEPHIFAPDRDEPDTDNSRVGYEILNLSTERDIEVPELFVMIQIANVTGELETAMDLKGYWGTYAIHIRAFDHGIPQMSMNETYELIIHPFNYYAPEFVFPTNDAVIRLARERAVINGVLATVNGEFLERISATDPDGLHAGVVTFQVVGDEESQRYFQVVNDGENLGSLRLLQAVPEEIREFRITIRATDQGTDPGPLSTDMTFRVVFVPTQGEPRFASSEHAVAFIEKSAGMEESHQLPLAQDIKNHLCEDDCHSIYYRIIDGNSEGHFGLDPVRNRLFLKKELIREQSASHTLQVAASNSPDGGIPLPASILTVTVTVREADPRPVFVRELYTAGISTADSIGRELLRLHATQSEGSAITYAIDYDTMVVDPSLEAVRQSAFVLNAQTGVLTLNIQPTATMHGLFKFEVTATDTAGAQDRTDVTVYVVSSQNRVYFVFVNTLQQVEDNRDFIA
For B1, the Kd was 6.8 nM.
